Experimental data published in publication PMC12990809.

Key:
Assay in all cases: pulldown
[1] = molecular target: T1, rsp-1 (Caenorhabditis elegans) (UniProt Q23121); conditions: 20 nM protein, 1.5 uM RNA pool; 20 mM HEPES pH 7.8, 70 mM KCl, 10 mM NaCl, 10% glycerol, 2 mM DTT, 0.1 ug/uL BSA; 30 min, 4 C
T1 sequence: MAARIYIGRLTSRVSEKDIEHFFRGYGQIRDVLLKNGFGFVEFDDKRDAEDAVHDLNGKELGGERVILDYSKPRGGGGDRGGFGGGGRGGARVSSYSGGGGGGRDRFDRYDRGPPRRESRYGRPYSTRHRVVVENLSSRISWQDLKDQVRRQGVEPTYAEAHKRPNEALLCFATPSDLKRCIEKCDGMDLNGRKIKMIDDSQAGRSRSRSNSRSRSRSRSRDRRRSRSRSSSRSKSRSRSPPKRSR

ESRP1 (Homo sapiens) = molecular target: T2, ESRP1 (Homo sapiens) (UniProt Q6NXG1); conditions: 20 nM protein, 1.5 uM RNA pool; 20 mM HEPES pH 7.8, 70 mM KCl, 10 mM NaCl, 10% glycerol, 2 mM DTT, 0.1 ug/uL BSA; 30 min, 4 C
T2 sequence: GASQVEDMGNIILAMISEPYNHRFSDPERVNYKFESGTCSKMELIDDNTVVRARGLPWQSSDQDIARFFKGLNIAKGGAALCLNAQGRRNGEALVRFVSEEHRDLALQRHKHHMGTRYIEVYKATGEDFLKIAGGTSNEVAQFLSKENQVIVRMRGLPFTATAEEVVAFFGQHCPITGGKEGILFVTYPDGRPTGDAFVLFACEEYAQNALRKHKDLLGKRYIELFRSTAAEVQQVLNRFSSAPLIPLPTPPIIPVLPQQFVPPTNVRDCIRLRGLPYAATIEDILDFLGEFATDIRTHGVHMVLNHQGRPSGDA

[2] = molecular target: T3, ENSXETG00000023721 (Xenopus tropicalis) (UniProt A0A803KLF2); conditions: 20 nM protein, 1.5 uM RNA pool; 20 mM HEPES pH 7.8, 70 mM KCl, 10 mM NaCl, 10% glycerol, 2 mM DTT, 0.1 ug/uL BSA; 30 min, 4 C
T3 sequence: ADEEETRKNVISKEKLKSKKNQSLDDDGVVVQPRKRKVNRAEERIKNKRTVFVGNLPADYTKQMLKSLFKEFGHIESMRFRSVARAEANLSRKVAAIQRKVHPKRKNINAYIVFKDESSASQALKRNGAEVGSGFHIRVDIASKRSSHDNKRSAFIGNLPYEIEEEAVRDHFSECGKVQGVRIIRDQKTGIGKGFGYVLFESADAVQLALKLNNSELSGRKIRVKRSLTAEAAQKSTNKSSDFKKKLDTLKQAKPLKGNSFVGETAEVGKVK

TRNAU1AP (Homo sapiens) = molecular target: T4, TRNAU1AP (Homo sapiens) (UniProt Q9NX07); conditions: 20 nM protein, 1.5 uM RNA pool; 20 mM HEPES pH 7.8, 70 mM KCl, 10 mM NaCl, 10% glycerol, 2 mM DTT, 0.1 ug/uL BSA; 30 min, 4 C
T4 sequence: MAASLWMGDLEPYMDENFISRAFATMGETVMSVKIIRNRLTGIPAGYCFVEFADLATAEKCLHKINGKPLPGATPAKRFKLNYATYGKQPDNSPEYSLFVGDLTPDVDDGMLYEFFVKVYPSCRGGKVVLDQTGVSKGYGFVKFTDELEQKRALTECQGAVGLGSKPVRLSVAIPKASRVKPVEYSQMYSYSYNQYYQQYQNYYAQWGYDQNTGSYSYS

[3] = molecular target: T5, PFI0820c (Plasmodium falciparum) (UniProt Q8I2Y5); conditions: 20 nM protein, 1.5 uM RNA pool; 20 mM HEPES pH 7.8, 70 mM KCl, 10 mM NaCl, 10% glycerol, 2 mM DTT, 0.1 ug/uL BSA; 30 min, 4 C
T5 sequence: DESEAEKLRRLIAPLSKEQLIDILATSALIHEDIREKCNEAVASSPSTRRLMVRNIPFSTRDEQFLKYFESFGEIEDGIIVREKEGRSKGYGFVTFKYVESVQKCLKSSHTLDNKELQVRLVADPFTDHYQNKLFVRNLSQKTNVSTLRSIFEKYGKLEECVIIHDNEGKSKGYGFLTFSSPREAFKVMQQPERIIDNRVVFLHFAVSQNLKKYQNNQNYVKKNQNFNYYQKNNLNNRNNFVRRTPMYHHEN

[4] = molecular target: T6, U2B'' (Arabidopsis thaliana) (UniProt O22922); conditions: 20 nM protein, 1.5 uM RNA pool; 20 mM HEPES pH 7.8, 70 mM KCl, 10 mM NaCl, 10% glycerol, 2 mM DTT, 0.1 ug/uL BSA; 30 min, 4 C
T6 sequence: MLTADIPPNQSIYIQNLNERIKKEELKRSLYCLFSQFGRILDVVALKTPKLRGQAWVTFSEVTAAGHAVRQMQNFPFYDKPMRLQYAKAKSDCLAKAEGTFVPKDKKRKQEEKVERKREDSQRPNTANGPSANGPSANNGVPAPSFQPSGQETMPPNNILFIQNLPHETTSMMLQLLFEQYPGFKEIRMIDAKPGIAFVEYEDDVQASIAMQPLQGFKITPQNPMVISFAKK

LIN28A (Homo sapiens) = molecular target: T7, LIN28A (Homo sapiens) (UniProt Q9H9Z2); conditions: 20 nM protein, 1.5 uM RNA pool; 20 mM HEPES pH 7.8, 70 mM KCl, 10 mM NaCl, 10% glycerol, 2 mM DTT, 0.1 ug/uL BSA; 30 min, 4 C (protocol of this paper; not …); cited from earlier work
T7 sequence: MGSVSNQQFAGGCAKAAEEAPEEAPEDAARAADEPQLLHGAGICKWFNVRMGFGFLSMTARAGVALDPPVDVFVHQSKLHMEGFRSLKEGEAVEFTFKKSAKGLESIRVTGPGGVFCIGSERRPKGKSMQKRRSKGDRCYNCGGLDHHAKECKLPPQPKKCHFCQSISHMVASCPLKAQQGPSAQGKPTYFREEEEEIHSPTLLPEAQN

PUF60 (Homo sapiens) = molecular target: T8, PUF60 (Homo sapiens) (UniProt Q9UHX1); conditions: 20 nM protein, 1.5 uM RNA pool; 20 mM HEPES pH 7.8, 70 mM KCl, 10 mM NaCl, 10% glycerol, 2 mM DTT, 0.1 ug/uL BSA; 30 min, 4 C
T8 sequence: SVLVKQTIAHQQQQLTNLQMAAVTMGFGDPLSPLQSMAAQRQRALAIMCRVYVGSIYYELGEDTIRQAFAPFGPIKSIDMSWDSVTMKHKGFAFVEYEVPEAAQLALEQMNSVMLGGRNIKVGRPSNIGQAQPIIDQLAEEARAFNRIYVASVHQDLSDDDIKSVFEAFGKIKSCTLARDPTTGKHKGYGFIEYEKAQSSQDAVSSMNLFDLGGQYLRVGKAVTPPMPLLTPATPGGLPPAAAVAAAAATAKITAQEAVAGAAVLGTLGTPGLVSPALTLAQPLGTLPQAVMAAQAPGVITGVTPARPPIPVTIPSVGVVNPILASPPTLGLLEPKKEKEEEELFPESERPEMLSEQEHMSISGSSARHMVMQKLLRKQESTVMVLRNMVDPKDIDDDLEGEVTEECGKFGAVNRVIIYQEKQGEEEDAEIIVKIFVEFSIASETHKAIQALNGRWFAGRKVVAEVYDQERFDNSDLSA

[5] = molecular target: T9, cpb-2 (Caenorhabditis elegans) (UniProt Q18317); conditions: 20 nM protein, 1.5 uM RNA pool; 20 mM HEPES pH 7.8, 70 mM KCl, 10 mM NaCl, 10% glycerol, 2 mM DTT, 0.1 ug/uL BSA; 30 min, 4 C
T9 sequence: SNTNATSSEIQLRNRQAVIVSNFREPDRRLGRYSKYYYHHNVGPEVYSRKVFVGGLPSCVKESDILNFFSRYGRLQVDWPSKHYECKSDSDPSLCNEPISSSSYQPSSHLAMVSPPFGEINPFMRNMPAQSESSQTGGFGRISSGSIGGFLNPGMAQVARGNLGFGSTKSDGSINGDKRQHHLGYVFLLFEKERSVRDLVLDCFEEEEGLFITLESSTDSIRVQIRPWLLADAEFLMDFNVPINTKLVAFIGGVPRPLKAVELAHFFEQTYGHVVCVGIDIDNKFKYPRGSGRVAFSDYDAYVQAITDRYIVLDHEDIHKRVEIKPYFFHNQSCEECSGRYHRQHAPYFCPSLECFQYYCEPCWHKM

GGAGGAG [RNAcompete motif RNCMPT00801] gave a binding signal (z-score (mean of top ten 7-mers)) [1] of 9.02.

In the case of GGAUGGGG [RNAcompete motif RNCMPT00808], the binding signal (z-score (mean of top ten 7-mers)) (ESRP1 (Homo sapiens)) is reported as 6.61.

For GAACG [RNAcompete motif RNCMPT00828], the binding signal (z-score (mean of top ten 7-mers)) [2] was 10.8.

For AAUUU [RNAcompete motif RNCMPT00813], the binding signal (z-score (mean of top ten 7-mers)) (TRNAU1AP (Homo sapiens)) was 7.72.

For GAGAGAA [RNAcompete motif RNCMPT00793], the binding signal (z-score (mean of top ten 7-mers)) [3] was 6.18.

For UUGCACA [RNAcompete motif RNCMPT01660], the binding signal (z-score (mean of top ten 7-mers)) [4] was 14.2.

For CGGAGG [RNAcompete motif RNCMPT00162], the binding signal (z-score (mean of top ten 7-mers)) (LIN28A (Homo sapiens)) is listed as 6.24.

In the case of UUUUUUU [RNAcompete motif RNCMPT00820], the binding signal (z-score (mean of top ten 7-mers)) (PUF60 (Homo sapiens)) is reported as 12.

With UUUNUA [RNAcompete motif RNCMPT00794] the binding signal (z-score (mean of top ten 7-mers)) [5] was 14.9.
